Measurements published in PMC4894940, “The function of the two-pore channel TPC1 depends on dimerization of its carboxy-terminal helix” (Cellular and Molecular Life Sciences: CMLS, 2016).

Legend:
[1] = system: slow vacuolar (SV) currents in tpc1-2 vacuoles; assay: Whole-vacuolar patch-clamp of TPC1 variants (SV currents); assay type: cell-based, Arabidopsis thaliana; details: whole-vacuolar, 1 mM CaCl2, relative to wild type; results section
Protocol: (§1) Expression of GFP-fusion proteins for electrophysiological measurements or confocal microscopy was performed in A. thaliana tpc1-2 mesophyll protoplasts as described. Briefly, leaves were enzymatically digested to release mesophyll protoplasts, which were then transformed by the polyethylene glycol method. Protoplasts were used for electrophysiological measurements and subcellular localization of GFP fluorescence 2–4 days after transformation.
(§2) Patch-clamp experiments were performed on transformed vacuoles harboring two-pore channels as identified by GFP fluorescence. The pipette (luminal) solution consisted of 100 mM K-gluconate, 2 mM MgCl2, 10 mM EGTA, 10 mM MES, pH 5.5/Tris. The bath (cytosolic) solution contained 50 mM K-gluconate, 1 mM CaCl2, 1 mM MgCl2, 2 mM DTT, 10 mM HEPES, pH 7.5/Tris. Solutions were adjusted to 430 mosmol/kg by adding D-sorbitol. For analysis of the TPC1-S706 mutants two further calcium concentrations of the bath solution were used in which 1 mM CaCl2 was substituted by 0.2 mM or 0.05 mM CaCl2, respectively. Competition assays using the CTH peptide were performed on endogenous TPC1 channels in vacuoles isolated from Col-0 plants. Peptides were dissolved at 10 mM in bath solution supplemented with 1 % DMSO and 0.1 % pluronic, and diluted >600-fold for application in patch-clamp recordings. Currents were recorded either in the whole-vacuolar or cytosolic side-out configuration of the patch-clamp technique, using an EPC10 amplifier and the program PULSE (HEKA electronics, Lambrecht, Germany). Recordings and data analysis were performed as described earlier. Relative open probabilities (P o) were determined from tail currents at −53 mV, following pulses to the different test voltages. Tail currents were normalized to the maximum values at 1 mM Ca^2+, plotted as a function of the applied test voltage, and fitted according to the Boltzmann equation: PO=A/1+exp^zF/RT·(Vo-V) where V o and z are parameters for the voltage at half-maximum open probability and the apparent number of gating charges, respectively, and A describes the maximum conductance that is reached under the experimental conditions.

[2] = system: excised cytosolic side-out vacuolar membrane patches of tpc1-2 cells; assay: Excised cytosolic side-out patch recordings of TPC1 variants; assay type: cell-based, Arabidopsis thaliana
Protocol: as §1, §2

[3] = system: TPC1 subunits co-expressed in Nicotiana benthamiana leaves; assay: Bimolecular fluorescence complementation (Split Venus BiFC); assay type: cell-based; details: N. benthamiana leaves, plate reader and confocal
Protocol: For BiFC analyses the gateway entry vector pENTR-D-TOPO and the destination vectors pDEST–^GWVYCE and pDEST–^GWVYNE were used for C-terminal fusion of the Venus C- and N-terminus, respectively, and pDEST–VYCE(R)^GW and pDEST–VYNE(R)^GW for N-terminal tagging.
BiFC studies were performed as described using a Split Venus system. The Agrobacterium strain C58C1 [42] harboring the plasmid of interest and the helper strain p19 [43] were grown in LB medium supplemented with 100 µg/ml Kanamycin at 29 °C overnight. The cultures were brought to an optical density (OD600) of 1.0 in infiltration buffer (10 mM MES, 10 mM MgCl2, 100 µM acetosyringone, pH 5.7/KOH) and the combinations to test for co-expression mixed at equal amounts. The p19 helper strain (OD600 = 1.0) was added to these mixtures in a 1:1 ratio. Suspensions were incubated for 2 h before infiltration into the abaxial side of 6-week-old N. benthamiana leaves. Each leaf was infiltrated with several plasmid combinations and a positive control (TPC1/pDEST-^GWVYCE and TPC1/pDEST-^GWVYNE) as well as a negative control (p19 alone) at separated areas to monitor comparability of the transient expression and to define background fluorescence.
For fluorescence quantification leaf disks (Ø 6 mm) were cut out of the infiltrated areas with a cork borer 2.5 day after infiltration. Leaf disks were placed upside-down in a black 96-well plate prefilled with 70 µl H2O per well to minimize dehydration effects. Fluorescence was measured with a plate-reader (Infinite F200, Tecan) with an excitation wavelength of 485 ± 20 nm and an emission wavelength of 525 ± 25 nm.

tonoplast = assay: Confocal localization of GFP-fusions in tpc1-2 mesophyll protoplasts; assay type: cell-based, Arabidopsis thaliana; details: GFP-fusion in tpc1-2 mesophyll protoplasts
Protocol: as §1
Fluorescence signals were detected and documented with a TCS SP2 confocal laser scanning microscope and the Leica Confocal Software (Leica Microsystems). A 488 nm Argon laser was used for excitation of GFP and of the auto-fluorescence of chlorophyll. GFP-signals were detected from 500 to 556 nm and chlorophyll signals from 675 to 767 nm. Venus was excited with a […] and detected in the range from 520 to 556 nm, the corresponding chlorophyll signals were detected from 637 to 736 nm. Images were processed with Photoshop (Adobe Systems).

B1: TPC1-3LP: substitution of three leucines (L714, 715, and 719) by prolines (protein, UniProt Q94KI8 1-733, looked up, variant L714P L715P L719P)
Two pore calcium channel …: MEDPLIGRDSLGGGGTDRVRRSEAITHGTPFQKAAALVDLAEDGIGLPVEILDQSSFGESARYYFIFTRLDLIWSLNYFALLFLNFFEQPLWCEKNPKPSCKDRDYYYLGELPYLTNAESIIYEVITLAILLVHTFFPISYEGSRIFWTSRLNLVKVACVVILFVDVLVDFLYLSPLAFDFLPFRIAPYVRVIIFILSIRELRDTLVLLSGMLGTYLNILALWMLFLLFASWIAFVMFEDTQQGLTVFTSYGATLYQMFILFTTSNNPDVWIPAYKSSRWSSVFFVLYVLIGVYFVTNLILAVVYDSFKEQLAKQVSGMDQMKRRMLEKAFGLIDSDKNGEIDKNQCIKLFEQLTNYRTLPKISKEEFGLIFDELDDTRDFKINKDEFADLCQAIALRFQKEEVPSLFEHFPQIYHSALSQQLRAFVRSPNFGYAISFILIINFIAVVVETTLDIEESSAQKPWQVAEFVFGWIYVLEMALKIYTYGFENYWREGANRFDFLVTWVIVIGETATFITPDENTFFSNGEWIRYLLLARMLRLIRLLMNVQRYRAFIATFITLIPSLMPYLGTIFCVLCIYCSIGVQVFGGLVNAGNKKLFETELAEDDYLLFNFNDYPNGMVTLFNLLVMGNWQVWMESYKDLTGTWWSITYFVSFYVITILLLLNLVVAFVLEAFFTELDLEEEEKCQGQDSQEKRNRRRSAGSKSRSQRVDTPPHHMPGDELSKPECSTSDT
modifications: C-terminal GFP
notes: substitution of three leucines (L714, 715, and 719) by prolines
For B1, the “residual whole-vacuolar current amplitude (% of wild type amplitude)” value [1] was “about 7%”, the “macroscopic currents in excised patches” value ([2]; excised patches, tpc1-2 cells) was “no macroscopic currents were resolved” and the “BiFC signal” value [3] was “reduced compared to the wild type”.

B2: TPC1: wild type Arabidopsis two-pore channel TPC1 expressed as GFP-fusion in tpc1-2 background (protein)
chain: MEDPLIGRDSLGGGGTDRVRRSEAITHGTPFQKAAALVDLAEDGIGLPVEILDQSSFGESARYYFIFTRLDLIWSLNYFALLFLNFFEQPLWCEKNPKPSCKDRDYYYLGELPYLTNAESIIYEVITLAILLVHTFFPISYEGSRIFWTSRLNLVKVACVVILFVDVLVDFLYLSPLAFDFLPFRIAPYVRVIIFILSIRELRDTLVLLSGMLGTYLNILALWMLFLLFASWIAFVMFEDTQQGLTVFTSYGATLYQMFILFTTSNNPDVWIPAYKSSRWSSVFFVLYVLIGVYFVTNLILAVVYDSFKEQLAKQVSGMDQMKRRMLEKAFGLIDSDKNGEIDKNQCIKLFEQLTNYRTLPKISKEEFGLIFDELDDTRDFKINKDEFADLCQAIALRFQKEEVPSLFEHFPQIYHSALSQQLRAFVRSPNFGYAISFILIINFIAVVVETTLDIEESSAQKPWQVAEFVFGWIYVLEMALKIYTYGFENYWREGANRFDFLVTWVIVIGETATFITPDENTFFSNGEWIRYLLLARMLRLIRLLMNVQRYRAFIATFITLIPSLMPYLGTIFCVLCIYCSIGVQVFGGLVNAGNKKLFETELAEDDYLLFNFNDYPNGMVTLFNLLVMGNWQVWMESYKDLTGTWWSITYFVSFYVITILLLLNLVVAFVLEAFFTELDLEEEEKCQGQDSQEKRNRRRSAGSKSRSQRVDTLLHHMLGDELSKPECSTSDT
modifications: left off: Venus C-terminal half (VC, one copy) or Venus N-terminal half (VN, the other copy), C-terminal, kept
notes: wild type Arabidopsis two-pore channel TPC1 expressed as GFP-fusion in tpc1-2 background
In the case of B2, the “current remaining following reduction of Ca2+ from 1 mM to 200 µM” value ([2]; at 107 mV, Ca2+ reduced from 1 mM to 200 µM (n = 3–7)) is reported as 53 ± 10% and the “BiFC signal” value [3] is reported as “BiFC signals from wild type channels could be observed”.

B3: N-terminally tagged TPC1: TPC1 subunits N-terminally tagged with Venus halves (BiFC) or GFP (localization) (protein)
chain: MEDPLIGRDSLGGGGTDRVRRSEAITHGTPFQKAAALVDLAEDGIGLPVEILDQSSFGESARYYFIFTRLDLIWSLNYFALLFLNFFEQPLWCEKNPKPSCKDRDYYYLGELPYLTNAESIIYEVITLAILLVHTFFPISYEGSRIFWTSRLNLVKVACVVILFVDVLVDFLYLSPLAFDFLPFRIAPYVRVIIFILSIRELRDTLVLLSGMLGTYLNILALWMLFLLFASWIAFVMFEDTQQGLTVFTSYGATLYQMFILFTTSNNPDVWIPAYKSSRWSSVFFVLYVLIGVYFVTNLILAVVYDSFKEQLAKQVSGMDQMKRRMLEKAFGLIDSDKNGEIDKNQCIKLFEQLTNYRTLPKISKEEFGLIFDELDDTRDFKINKDEFADLCQAIALRFQKEEVPSLFEHFPQIYHSALSQQLRAFVRSPNFGYAISFILIINFIAVVVETTLDIEESSAQKPWQVAEFVFGWIYVLEMALKIYTYGFENYWREGANRFDFLVTWVIVIGETATFITPDENTFFSNGEWIRYLLLARMLRLIRLLMNVQRYRAFIATFITLIPSLMPYLGTIFCVLCIYCSIGVQVFGGLVNAGNKKLFETELAEDDYLLFNFNDYPNGMVTLFNLLVMGNWQVWMESYKDLTGTWWSITYFVSFYVITILLLLNLVVAFVLEAFFTELDLEEEEKCQGQDSQEKRNRRRSAGSKSRSQRVDTLLHHMLGDELSKPECSTSDT
modifications: left off: Venus C-terminal half (VC, one copy) or Venus N-terminal half (VN, the other copy), N-terminal, kept
B3 was tested, and the “BiFC signal” value [3] was “did not result in Venus-fluorescence” and the “subcellular localization of GFP-fusion” value (tonoplast) was “tonoplast localization”.
